Results: US20220177587A1, “METHODS AND USES OF VARIANT CD80 FUSION PROTEINS AND RELATED CONSTRUCTS” (Alpine Immune Sciences, Inc., priority 2018, published 2022)
Each block holds one substance with its values, some of them ahead of it.

How the values were obtained:
huPD-L1 = huPD-L1 (Homo sapiens, UniProt Q9NZQ7); test: Flow binding to CHO cells stably expressing PD-L1; set-up: huCTLA4 and huPD-L1, full-length mammalian surface expression constructs were generated; expressed in transfected cells; host or cells: CHO cells, lentiviral transduction, sorted to >98% purity; conditions: for PD-L1 MFI at 33.3 nM: CHO cells stably expressing PD-L1; for PD-L1 Fold change to WT CD80: MFI at 33.3 nM relative to CD80 WT IgV-Fc; for Ratio of PDL1:CD28: ratio of MFI at 33.3 nM
Chain of huPD-L1 (Q9NZQ7 19-290): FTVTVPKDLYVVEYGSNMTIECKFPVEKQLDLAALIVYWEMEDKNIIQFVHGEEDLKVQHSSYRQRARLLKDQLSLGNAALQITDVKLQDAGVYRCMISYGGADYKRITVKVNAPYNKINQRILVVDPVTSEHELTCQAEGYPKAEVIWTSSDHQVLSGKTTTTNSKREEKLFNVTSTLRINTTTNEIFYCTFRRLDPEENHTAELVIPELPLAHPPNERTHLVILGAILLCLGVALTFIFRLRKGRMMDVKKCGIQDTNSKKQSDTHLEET
Procedure: (§1) Binding of selected immunomodulatory fusion proteins to cognate binding partners was assessed. […] Cells were sorted in a Bio-Rad S3 Cell Sorter (Bio-Rad Corp., USA) to >98% purity. Jurkat/IL2 reporter cells, which endogenously express CD28, were used to detect binding to CD28.
(§2) For staining and analysis by flow cytometry, 100,000 cells of appropriate transfected cells were plated in 96-well round bottom plates. Cells were spun down and resuspended in staining buffer (phosphate buffered saline (PBS), 1% bovine serum albumin (BSA), and 0.1% sodium azide) for 20 minutes to block non-specific binding. […] Primary staining was performed on ice for 45 minutes, before washing cells in staining buffer twice. Phycoerythrin (PE)-conjugated anti-human Fc (Jackson ImmunoResearch, USA) was diluted 1:150, added to cells and incubated another 30 minutes on ice. Cells were then washed twice with 150 μL/well stain buffer, fixed in 2% formaldehyde/PBS, and analyzed on Intellicyt flow cytometer (Intellicyt Corp., USA). PE Mean Fluorescence Intensity (MFI) was calculated for each cell type with FlowJo Version 10 software (FlowJo LLC, USA).
(§3) Binding assays were carried out to assess the specificity and affinity of multivalent proteins to cell-expressed CTLA-4, CD28, and PD-L1 counter structures.
(§4) The EC50 for binding also was determined.

CD28 [1] = molecular target: T1, CD28 (Homo sapiens, UniProt P10747); test: Jurkat/IL2 + CHO/OKT3 +/- PD-L1 reporter assay: PD-L1-dependent CD28 costimulation; type: cell-based; set-up: host or cells: Jurkat cells expressing an IL-2-luciferase reporter; conditions: Jurkat/IL2 + CHO/OKT3/PD-L1
Procedure: Jurkat cells were then plated at 50 μL/well for a total of 100,000 cells per well.
To each well, 25 μL of test protein was added to the Jurkat cells. […] The Jurkat cells with test or control proteins were incubated for 15 minutes at room temperature. CHO-derived artificial antigen presenting cells (aAPC) displaying transduced cell surface anti-CD3 single chain Fv (OKT3) (i.e., no PD-L1), or OKT3 and PD-L1 (i.e., +PD-L1), were brought to 0.8×10^6 cells/mL, and 25 μL of cells were added to each well, bringing the final volume of each well to 100 μL. […] Jurkat cells and CHO cells were incubated for 5 hours at 37 degrees Celsius in a humidified 5% CO2 incubation chamber. Plates were then removed from the incubator and acclimated to room temperature for 15 minutes. 100 μL of a cell lysis and luciferase substrate solution (BioGlo luciferase reagent, Promega) were added to each well and the plates were incubated on an orbital shaker for 10 minutes. Luminescence was measured with a 1 second per well integration time using a BioTek Cytation luminometer, and a relative luminescence value (RLU) was determined for each test sample.

CD28 [2] = molecular target: T1, CD28; test: Flow binding to Jurkat/IL2 reporter cells (CD28); set-up: host or cells: Jurkat cells expressing an IL-2-luciferase reporter; conditions: for CD28 Fold change to WT CD80: MFI at 33.3 nM relative to CD80 WT IgV-Fc
Procedure: as §1, §2, §3, §4

huCTLA4 = huCTLA4 (Homo sapiens, UniProt P16410); test: Flow binding to CHO cells stably expressing CTLA4; set-up: huCTLA4 and huPD-L1, full-length mammalian surface expression constructs were generated; expressed in transfected cells; host or cells: CHO cells, lentiviral transduction, sorted to >98% purity; conditions: for CTLA4 MFI at 33.3 nM: CHO cells stably expressing CTLA4; for CTLA4 Fold change to WT CD80: MFI at 33.3 nM relative to CD80 WT IgV-Fc
Chain of huCTLA4 (P16410 36-223): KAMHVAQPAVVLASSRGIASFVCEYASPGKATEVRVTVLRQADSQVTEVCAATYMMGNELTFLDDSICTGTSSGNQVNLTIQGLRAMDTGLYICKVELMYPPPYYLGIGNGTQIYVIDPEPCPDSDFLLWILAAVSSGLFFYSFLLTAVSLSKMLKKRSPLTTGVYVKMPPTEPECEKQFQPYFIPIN
Procedure: as §1, §2, §3, §4

[3] = Table E20, Jurkats (CD28), 33.3 nM
[4] = Table E23, CD80 IgV-Fc (inert) at 33.3 nM
[5] = Table E23, CD80 IgV-Fc (inert) at 33.3 nM, Jurkat (CD28)

Substance: H18Y/E35D/M47L/V68M/A71G
PD-L1 MFI at 33.3 nM (huPD-L1; Table E20, 33.3 nM): 30377
PD-L1 Fold change to WT CD80 (huPD-L1; Table E20): 696.7 fold
Ratio of PDL1:CD28 (huPD-L1; Table E20): 32.7
Fold Increase over WT CD80-IgV-Fe (CD28 [1]; Table E22, 5.0 nM): 2.19 fold
Relative Luciferase Units (RLU), CD80 Conc 5.0 nM (CD28 [1]; Table E22, CD80 Conc 5.0 nM): 853 RLU
CD28 MFI at 33.3 nM (CD28 [2]; [3]): 928
CD28 Fold change to WT CD80 (CD28 [2]; Table E20): 21.1 fold
CTLA4 MFI at 33.3 nM (huCTLA4; Table E20, 33.3 nM): 23667
CTLA4 Fold change to WT CD80 (huCTLA4; Table E20): 17.4 fold

Substance: H18Y/A26E/M47L/A71G/D90G
Relative Luciferase Units (RLU), CD80 Conc 5.0 nM (CD28 [1]; Table E22, CD80 Conc 5.0 nM): 1036 RLU
CD28 MFI at 33.3 nM (CD28 [2]; [3]): 2047
CTLA4 MFI at 33.3 nM (huCTLA4; Table E20, 33.3 nM): 25420

Substance: H18Y/E35D/M47L/V68M/A71G/D90G
PD-L1 MFI at 33.3 nM (huPD-L1; Table E20, 33.3 nM): 29944
Relative Luciferase Units (RLU), CD80 Conc 5.0 nM (CD28 [1]; Table E22, CD80 Conc 5.0 nM): 1028 RLU
CTLA4 MFI at 33.3 nM (huCTLA4; Table E20, 33.3 nM): 19892

Substance: H18Y/A26E/M47L/V68M/D90G
PD-L1 MFI at 33.3 nM (huPD-L1; Table E20, 33.3 nM): 23594
PD-L1 Fold change to WT CD80 (huPD-L1; Table E20): 541.1 fold
Ratio of PDL1:CD28 (huPD-L1; Table E20): 737.3
Fold Increase over WT CD80-IgV-Fe (CD28 [1]; Table E22, 5.0 nM): 2.76 fold
Relative Luciferase Units (RLU), CD80 Conc 5.0 nM (CD28 [1]; Table E22, CD80 Conc 5.0 nM): 1075 RLU
CD28 MFI at 33.3 nM (CD28 [2]; [3]): 32
CD28 Fold change to WT CD80 (CD28 [2]; Table E20): 0.7 fold
CTLA4 MFI at 33.3 nM (huCTLA4; Table E20, 33.3 nM): 28649
CTLA4 Fold change to WT CD80 (huCTLA4; Table E20): 21.1 fold

Substance: H18Y/A26Q/E35D/M47T/V68M/A71G/D90G
PD-L1 MFI at 33.3 nM (huPD-L1; [4]): 24450
PD-L1 Fold change to WT CD80 (huPD-L1; Table E23): 148.2
Ratio of PDL1:CD28 (huPD-L1; Table E23): 3.6
Fold Increase over WT CD80-IgV-Fe (CD28 [1]; Table E24, 5.0 nM): 5.8
Relative Luciferase Units (RLU), CD80 Conc 5.0 nM (CD28 [1]; Table E24, 5.0 nM): 994 RLU
CD28 MFI at 33.3 nM (CD28 [2]; [5]): 6733
CD28 Fold change to WT CD80 (CD28 [2]; Table E23): 66.0
CTLA4 MFI at 33.3 nM (huCTLA4; [4]): 16652
CTLA4 Fold change to WT CD80 (huCTLA4; Table E23): 12.0

Substance: E35D/M47L/V68M/A71G/D90G
PD-L1 MFI at 33.3 nM (huPD-L1; Table E20, 33.3 nM): 29377
CD28 MFI at 33.3 nM (CD28 [2]; [3]): 3072
CTLA4 MFI at 33.3 nM (huCTLA4; Table E20, 33.3 nM): 26007

More lines, now with the values ahead:

PD-L1 MFI at 33.3 nM (huPD-L1; [4]): 73166
CD28 MFI at 33.3 nM (CD28 [2]; [5]): 9620
CTLA4 MFI at 33.3 nM (huCTLA4; [4]): 23151
Substance: H18V/A26R/E35D/M47L/V68M/A71G/D90G

PD-L1 MFI at 33.3 nM (huPD-L1; [4]): 161
CD28 MFI at 33.3 nM (CD28 [2]; [5]): 57.8
Substance: CD80 WT ECD-Fc

PD-L1 MFI at 33.3 nM (huPD-L1; Table E10, 33.3 nM): 46.3
CD28 MFI at 33.3 nM (CD28 [2]; Table E10, 33.3 nM, Jurkats (CD28)): 43
Substance: WT CD80 ECD-Fc H22.6

Relative Luciferase Units (RLU), CD80 Conc 5.0 nM (CD28 [1]; Table E22, CD80 Conc 5.0 nM): 986 RLU
CTLA4 MFI at 33.3 nM (huCTLA4; Table E20, 33.3 nM): 22235
Substance: H18Y/M47L/V68M/A71G/D90G

PD-L1 MFI at 33.3 nM (huPD-L1; Table E20, 33.3 nM): 25217
PD-L1 Fold change to WT CD80 (huPD-L1; Table E20): 578.4 fold
Ratio of PDL1:CD28 (huPD-L1; Table E20): 9.4
Fold Increase over WT CD80-IgV-Fe (CD28 [1]; Table E22, 5.0 nM): 2.29 fold
Relative Luciferase Units (RLU), CD80 Conc 5.0 nM (CD28 [1]; Table E22, CD80 Conc 5.0 nM): 893 RLU
CD28 MFI at 33.3 nM (CD28 [2]; [3]): 2675
CD28 Fold change to WT CD80 (CD28 [2]; Table E20): 60.9 fold
CTLA4 MFI at 33.3 nM (huCTLA4; Table E20, 33.3 nM): 24855
CTLA4 Fold change to WT CD80 (huCTLA4; Table E20): 18.3 fold
Substance: H18Y/A26E/E35D/M47L/V68M/D90G

PD-L1 MFI at 33.3 nM (huPD-L1; Table E20, 33.3 nM): 14550
Relative Luciferase Units (RLU), CD80 Conc 5.0 nM (CD28 [1]; Table E22, CD80 Conc 5.0 nM): 1132 RLU
CTLA4 MFI at 33.3 nM (huCTLA4; Table E20, 33.3 nM): 22127
Substance: A26E/E35D/M47L/A71G/D90G

PD-L1 MFI at 33.3 nM (huPD-L1; Table E20, 33.3 nM): 28139
CTLA4 MFI at 33.3 nM (huCTLA4; Table E20, 33.3 nM): 21807
Substance: A26E/M47L/V68M/A71G/D90G

PD-L1 MFI at 33.3 nM (huPD-L1; [4]): 36284
PD-L1 Fold change to WT CD80 (huPD-L1; Table E23): 219.9
Ratio of PDL1:CD28 (huPD-L1; Table E23): 7.4
Fold Increase over WT CD80-IgV-Fe (CD28 [1]; Table E24, 5.0 nM): 6.2
Relative Luciferase Units (RLU), CD80 Conc 5.0 nM (CD28 [1]; Table E24, 5.0 nM): 1054 RLU
CD28 MFI at 33.3 nM (CD28 [2]; [5]): 4913
CD28 Fold change to WT CD80 (CD28 [2]; Table E23): 48.2
CTLA4 MFI at 33.3 nM (huCTLA4; [4]): 21360
CTLA4 Fold change to WT CD80 (huCTLA4; Table E23): 15.4
Substance: H18A/A26N/E35D/M47L/V68M/A71G/D90G

PD-L1 MFI at 33.3 nM (huPD-L1; Table E19, 33.3 nM): 128
CD28 MFI at 33.3 nM (CD28 [2]; Table E19, Jurkats (CD28), 33.3 nM): 709
Substance: WT CD80 ECD-Fc (Abcam)
